Test results as given in publication PMC10786891, “Massively parallel profiling of RNA-targeting CRISPR-Cas13d”.
Numbering of substitutions follows the chain as printed. Names and notes keep the numbering of the source.

T1: EsCas13d, nuclease-dead (Eubacterium siraeum, UniProt B0MS50, R295A;H300A;R849A;H854A)
T1 sequence: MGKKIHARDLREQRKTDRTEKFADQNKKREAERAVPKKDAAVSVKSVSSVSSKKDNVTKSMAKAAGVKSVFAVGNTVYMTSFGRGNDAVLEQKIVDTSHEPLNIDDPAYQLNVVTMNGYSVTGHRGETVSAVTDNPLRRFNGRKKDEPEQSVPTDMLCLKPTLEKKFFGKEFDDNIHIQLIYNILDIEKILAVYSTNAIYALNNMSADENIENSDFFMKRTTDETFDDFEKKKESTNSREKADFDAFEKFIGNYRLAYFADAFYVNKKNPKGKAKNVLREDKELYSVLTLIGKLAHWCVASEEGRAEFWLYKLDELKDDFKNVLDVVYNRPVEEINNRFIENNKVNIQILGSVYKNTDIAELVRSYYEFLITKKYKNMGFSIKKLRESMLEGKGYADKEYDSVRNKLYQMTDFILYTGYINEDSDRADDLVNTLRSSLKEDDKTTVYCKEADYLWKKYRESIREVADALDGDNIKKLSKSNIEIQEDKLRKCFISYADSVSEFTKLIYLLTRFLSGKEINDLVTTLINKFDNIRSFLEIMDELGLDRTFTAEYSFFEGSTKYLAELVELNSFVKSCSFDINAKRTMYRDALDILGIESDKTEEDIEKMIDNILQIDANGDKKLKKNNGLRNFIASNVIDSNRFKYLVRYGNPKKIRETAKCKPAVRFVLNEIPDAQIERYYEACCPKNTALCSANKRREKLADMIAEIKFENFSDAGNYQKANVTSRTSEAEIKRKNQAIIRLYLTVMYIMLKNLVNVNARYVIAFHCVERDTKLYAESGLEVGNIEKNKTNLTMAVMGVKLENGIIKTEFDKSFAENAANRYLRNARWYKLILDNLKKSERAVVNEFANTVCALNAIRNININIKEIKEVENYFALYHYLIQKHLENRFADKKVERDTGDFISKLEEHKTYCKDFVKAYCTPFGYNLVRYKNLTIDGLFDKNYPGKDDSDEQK

B1: target 1 U11G,G12U (mixed)
RNA 1: CACCCGUGCAAAAAUGCAGGGGUCUAAAACUGAGCGGAUAACCUCUCUAUGG
RNA 2: GGGAAUGGAUCCACAUCUACGAAUUCGUACCAUAGAGAGUGUAUCCGCUCACCGAGAUCGGAAGAGCACACGU
B2: target 1 MT 5'PFS AAG 3'PFS AUC (mixed)
RNA 1: B1 RNA 1
RNA 2: B1 RNA 2 with G27A, U28A, A29G, U40G, G41U, C52A, C53U, G54C
B3: target 1 MT 5'PFS CCG 3'PFS CUG (mixed)
RNA 1: B1 RNA 1
RNA 2: B1 RNA 2 with G27C, U28C, A29G, U40G, G41U, C53U
B4: target 1 MT 5'PFS GUC 3'PFS CGU (mixed)
RNA 1: B1 RNA 1
RNA 2: B1 RNA 2 with A29C, U40G, G41U, C53G, G54U
B5: target 1 MT 5'PFS CCG 3'PFS CUC (mixed)
RNA 1: B1 RNA 1
RNA 2: B1 RNA 2 with G27C, U28C, A29G, U40G, G41U, C53U, G54C
B6: target 1 MT 5'PFS CCG 3'PFS CUA (mixed)
RNA 1: B1 RNA 1
RNA 2: B1 RNA 2 with G27C, U28C, A29G, U40G, G41U, C53U, G54A
B7: target 1 MT 5'PFS GCC 3'PFS CCG (mixed)
RNA 1: B1 RNA 1
RNA 2: B1 RNA 2 with U28C, A29C, U40G, G41U
B8: target 1 MT 5'PFS GCG 3'PFS ACG (mixed)
RNA 1: B1 RNA 1
RNA 2: B1 RNA 2 with U28C, A29G, U40G, G41U, C52A
B9: target 1 MT 5'PFS GCG 3'PFS ACA (mixed)
RNA 1: B1 RNA 1
RNA 2: B1 RNA 2 with U28C, A29G, U40G, G41U, C52A, G54A
B10: target 1 MT 5'PFS GCC 3'PFS CCA (mixed)
RNA 1: B1 RNA 1
RNA 2: B1 RNA 2 with U28C, A29C, U40G, G41U, G54A
B11: target 1 MT 5'PFS GGU 3'PFS UCA (mixed)
RNA 1: B1 RNA 1
RNA 2: B1 RNA 2 with U28G, A29U, U40G, G41U, C52U, G54A
B12: target 1 insG 3' of 22,insC 3' of 14 (mixed)
RNA 1: B1 RNA 1
RNA 2: GGGAAUGGAUCCACAUCUACGAAUUCGUACGCAUAGAGACGGUUAUCCGCUCACCGAGAUCGGAAGAGCACACGU
B13: target 1 MT 5'PFS GUC 3'PFS CGG (mixed)
RNA 1: B1 RNA 1
RNA 2: B1 RNA 2 with A29C, U40G, G41U, C53G
B14: target 1 MT 5'PFS GGU 3'PFS UCC (mixed)
RNA 1: B1 RNA 1
RNA 2: B1 RNA 2 with U28G, A29U, U40G, G41U, C52U, G54C
B15: target 1 MT 5'PFS GUC 3'PFS CGA (mixed)
RNA 1: B1 RNA 1
RNA 2: B1 RNA 2 with A29C, U40G, G41U, C53G, G54A
B16: target 1 MT 5'PFS GUC 3'PFS CGC (mixed)
RNA 1: B1 RNA 1
RNA 2: B1 RNA 2 with A29C, U40G, G41U, C53G, G54C
B17: target 1 MT 5'PFS GAG 3'PFS UUC (mixed)
RNA 1: B1 RNA 1
RNA 2: B1 RNA 2 with U28A, A29G, U40G, G41U, C52U, C53U, G54C
B18: target 1 MT 5'PFS GCU 3'PFS ACC (mixed)
RNA 1: B1 RNA 1
RNA 2: B1 RNA 2 with U28C, A29U, U40G, G41U, C52A, G54C
B19: target 1 MT 5'PFS GCA 3'PFS CUA (mixed)
RNA 1: B1 RNA 1
RNA 2: B1 RNA 2 with U28C, U40G, G41U, C53U, G54A
B20: target 1 MT 5'PFS GCU 3'PFS ACG (mixed)
RNA 1: B1 RNA 1
RNA 2: B1 RNA 2 with U28C, A29U, U40G, G41U, C52A
B21: target 1 MT 5'PFS GAG 3'PFS UUA (mixed)
RNA 1: B1 RNA 1
RNA 2: B1 RNA 2 with U28A, A29G, U40G, G41U, C52U, C53U, G54A
B22: target 1 MT 5'PFS GCA 3'PFS CUU (mixed)
RNA 1: B1 RNA 1
RNA 2: B1 RNA 2 with U28C, U40G, G41U, C53U, G54U
B23: target 1 C2A,A18C (mixed)
RNA 1: B1 RNA 1
RNA 2: B1 RNA 2 with A34C, U40G, G41U, C50A
B24: target 1 MT 5'PFS GCU 3'PFS ACU (mixed)
RNA 1: B1 RNA 1
RNA 2: B1 RNA 2 with U28C, A29U, U40G, G41U, C52A, G54U
B25: target 1 MT 5'PFS UCA 3'PFS UAA (mixed)
RNA 1: B1 RNA 1
RNA 2: B1 RNA 2 with G27U, U28C, U40G, G41U, C52U, C53A, G54A
B26: target 1 MT 5'PFS UCA 3'PFS UAG (mixed)
RNA 1: B1 RNA 1
RNA 2: B1 RNA 2 with G27U, U28C, U40G, G41U, C52U, C53A
B27: target 1 MT 5'PFS UGC 3'PFS UUG (mixed)
RNA 1: B1 RNA 1
RNA 2: B1 RNA 2 with G27U, U28G, A29C, U40G, G41U, C52U, C53U
B28: target 1 MT 5'PFS UCA 3'PFS UAU (mixed)
RNA 1: B1 RNA 1
RNA 2: B1 RNA 2 with G27U, U28C, U40G, G41U, C52U, C53A, G54U
B29: target 1 MT 5'PFS UGC 3'PFS UUC (mixed)
RNA 1: B1 RNA 1
RNA 2: B1 RNA 2 with G27U, U28G, A29C, U40G, G41U, C52U, C53U, G54C
B30: target 1 MT 5'PFS GCU 3'PFS GAA (mixed)
RNA 1: B1 RNA 1
RNA 2: B1 RNA 2 with U28C, A29U, U40G, G41U, C52G, C53A, G54A
B31: target 1 MT 5'PFS ACU 3'PFS ACA (mixed)
RNA 1: B1 RNA 1
RNA 2: B1 RNA 2 with G27A, U28C, A29U, U40G, G41U, C52A, G54A
B32: target 1 MT 5'PFS AAU 3'PFS AUC (mixed)
RNA 1: B1 RNA 1
RNA 2: B1 RNA 2 with G27A, U28A, A29U, U40G, G41U, C52A, C53U, G54C
B33: target 1 MT 5'PFS UGC 3'PFS CAA (mixed)
RNA 1: B1 RNA 1
RNA 2: B1 RNA 2 with G27U, U28G, A29C, U40G, G41U, C53A, G54A
B34: target 1 U11C,A18C (mixed)
RNA 1: B1 RNA 1
RNA 2: B1 RNA 2 with A34C, U40G, G41C
B35: target 1 MT 5'PFS UGC 3'PFS CAC (mixed)
RNA 1: B1 RNA 1
RNA 2: B1 RNA 2 with G27U, U28G, A29C, U40G, G41U, C53A, G54C
B36: target 1 MT 5'PFS ACG 3'PFS AAG (mixed)
RNA 1: B1 RNA 1
RNA 2: B1 RNA 2 with G27A, U28C, A29G, U40G, G41U, C52A, C53A
B37: target 1 MT 5'PFS ACA 3'PFS ACU (mixed)
RNA 1: B1 RNA 1
RNA 2: B1 RNA 2 with G27A, U28C, U40G, G41U, C52A, G54U
B38: target 1 MT 5'PFS CCU 3'PFS CUG (mixed)
RNA 1: B1 RNA 1
RNA 2: B1 RNA 2 with G27C, U28C, A29U, U40G, G41U, C53U
B39: target 1 MT 5'PFS ACA 3'PFS ACA (mixed)
RNA 1: B1 RNA 1
RNA 2: B1 RNA 2 with G27A, U28C, U40G, G41U, C52A, G54A
B40: target 1 MT 5'PFS ACA 3'PFS ACC (mixed)
RNA 1: B1 RNA 1
RNA 2: B1 RNA 2 with G27A, U28C, U40G, G41U, C52A, G54C

molecular target: T1, EsCas13d, nuclease-dead; test: crRNA (strand 1, pre-loaded); Mg2+; 40 mM Tris-HCl pH 7.5, 150 mM NaCl, 6 mM MgCl2, 1 mM DTT, 0.1% Tween-20, 0.2 mg/ml BSA; 25 C; 10 min per concentration, then washed; settings: tags: His6-TwinStrep-SUMO cleaved; N-terminal SNAP kept (SNAP-Surface 488); label: 3' end held by stalled T7 RNA polymerase

Binder	Kd [nM]
B1	~50
B2	26.5 ± 10
B3	1.95 ± 0.465
B4	13.2 ± 1.9
B5	3.15 ± 1
B6	7.9 ± 2.9
B7	12.9 ± 3.15
B8	49.5 ± 10
B9	32.5 ± 14.5
B10	95 ± 40
B11	44 ± 19
B12	41 ± 17
B13	28.5 ± 7
B14	21 ± 5.5
B15	19.5 ± 4
B16	22 ± 4.5
B17	37 ± 11
B18	43 ± 14.5
B19	18.4 ± 4.7
B20	43.5 ± 10.5

Binder	Kd [nM]
B21	36 ± 9
B22	11.8 ± 2.55
B23	47.9 ± 3.3
B24	33 ± 11
B25	9.45 ± 3.3
B26	~50
B27	10.7 ± 2.05
B28	11.5 ± 2.3
B29	14 ± 3.7
B30	~110
B31	~90
B32	28.5 ± 12
B33	63 ± 28.5
B34	75 ± 10
B35	~65
B36	26.5 ± 11
B37	9.3 ± 2.9
B38	21 ± 7
B39	~31
B40	~47.5
